Test results: patent US9546201B2, “MUC-1 cytoplasmic domain peptides as inhibitors of cancer” (DANA-FARBER CANCER INSTITUTE, INC., priority 2008, dated 2017)
Where no end group is shown, it is not given here. [ ]: non-standard residue; d: D form.

Target: T1, His-MUC1-CD (Homo sapiens, UniProt P15941)
T1 sequence (P15941 1184-1255): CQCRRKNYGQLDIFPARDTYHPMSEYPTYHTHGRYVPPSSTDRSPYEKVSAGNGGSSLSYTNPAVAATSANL
Experiment: BIAcore binding to immobilized His-MUC1-CD
Conditions: data not shown
Method: FIGS. 1A-D. MUC1/CQC peptide blocks MUC1 oligomerization. (FIG. 1A) Schematic representation of the MUC1-C subunit and the 72-amino acid sequence of MUC1-CD (SEQ ID NO: 1) are shown. The N-terminal 15 amino acids (shaded sequence; SEQ ID NO: 3) MUC1/CQC (SEQ ID NO: 63) and mutated MUC1/AQA (SEQ ID NO: 60) peptides were synthesized with the poly-dArg transduction domain. (FIG. 1B) His-MUC1-CD (1.4 mg/ml) was immobilized on a sensor chip in a BIAcore. MUC1/CQC was injected over the chip at 10 μM. Raw binding data were analyzed by BIAevaluation software version 3.0 and fit to a 1:1 Languir binding model. (FIG. 1C) Purified His-MUC1-CD (1.5 mg/ml) was incubated with PBS, 200 μM MUC1/CQC or 200 μM MUC1/AQA for 1 h at room temperature. The proteins were separated in a non-reducing SDS-polyacrylamide gel and analyzed by immunoblotting with anti-MUC1-C. (FIG. 1D) 293 cells were transiently transfected to express an empty vector or GFP-MUC1-CD and Flag-MUC1-CD. At 48 h after transfection, the cells were treated with 5 μM MUC1/CQC or MUC1/AQA for 3 d. The cells were then harvested for immunoblotting with anti-MUC1-C (left panel). […]
The MUC1 cytoplasmic domain (MUC1-CD) contains a CQC motif that is necessary for the formation of oligomers and nuclear localization (Leng et al., 2007). […] Purified His-tagged MUC1-CD forms oligomers as detected by electrophoresis in polyacrylamide gels (FIG. 1C). […]

MUC1/AQA: control peptide in which the CQC motif was altered to AQA, with poly-dArg transduction domain; SEQ ID NO: 60 ([dR][dR][dR][dR][dR][dR][dR][dR][dR]AQARRKNYGQLDIFP) [reference compound]
binding to His-MUC1-CD: no apparent binding
